Experiments:
[1] = molecular target: T1, RbBP5 beta-propeller (1-340) wild type (mouse, UniProt Q8BX09 1-340); test: NMR 1H-15N HSQC titration; marginally stronger than 7N-RNA pool; Anisotropy: 50 mM Tris pH 7.4, 150 mM NaCl, 0.5 mM DTT, 20 C; NMR conditions not in the material; conditions: protein: recombinant; tags: 6xHis-SUMO removed by 3C protease
[2] = molecular target: T1, RbBP5 beta-propeller (1-340) wild type; test: fluorescence anisotropy; Anisotropy: 50 mM Tris pH 7.4, 150 mM NaCl, 0.5 mM DTT, 20 C; NMR conditions not in the material; conditions: protein: recombinant; tags: 6xHis-SUMO removed by 3C protease; label: 6-FAM (3')

T1 sequence (Q8BX09 1-340): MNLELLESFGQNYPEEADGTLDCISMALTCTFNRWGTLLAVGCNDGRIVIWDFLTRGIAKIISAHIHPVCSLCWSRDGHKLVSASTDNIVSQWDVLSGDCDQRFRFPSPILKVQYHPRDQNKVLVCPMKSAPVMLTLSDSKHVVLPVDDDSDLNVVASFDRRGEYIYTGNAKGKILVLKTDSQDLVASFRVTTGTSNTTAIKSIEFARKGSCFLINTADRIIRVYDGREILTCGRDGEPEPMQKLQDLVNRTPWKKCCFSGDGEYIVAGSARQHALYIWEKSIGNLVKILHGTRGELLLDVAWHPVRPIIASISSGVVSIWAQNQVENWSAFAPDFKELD

| Binder | binding result [1] | Kd [2] |
| --- | --- | --- |
| UAGGUUC (ssRNA) [SIA optimized RNA 7-mer] | binds | – |
| GCAUAGGUUCGAUC (ssRNA) [14-mer ssRNA-6FAM] | – | 22.5 ± 3.2 µM |

From paper PMC6283417, “The structure of the RbBP5 β-propeller domain reveals a surface with potential nucleic acid binding sites”
